Measured values reported in PMC5693944.
Each block holds one substance with its values, some of them ahead of it.

Legend:
Assay in all cases: SEC-MALS
[1] = target: Ml1 protein from Mesorhizobium loti (Mesorhizobium loti)
[2] = target: Ml2 protein from Mesorhizobium loti (Mesorhizobium loti)
[3] = target: MucR from Brucella abortus (Brucella abortus 2308)

stoichiometry N [1]: 10.4
Substance: Ml1 protein from Mesorhizobium loti (natural protein)

stoichiometry N [2]: 9.96
Substance: Ml2 protein from Mesorhizobium loti (natural protein)

Substance: MucR from Brucella abortus (natural protein)
stoichiometry N [3]: 10.4
